Measurements reported in the nanobody polyreactivity screen of Harvey et al. (2022).

Assay: yeast display, Sf9 membrane polyspecificity reagent, FACS + sequencing; frameworks hold sequencing errors
Method in brief: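 Genes from sorted yeast were amplified by colony PCR, read by MiSeq 2 × 250 sequencing and filtered on CDR length. These cells carried a synthetic nanobody library in Saccharomyces cerevisiae BJ5465 and were sorted by FACS into low and high (top ~1%) gates on anti-HA and streptavidin fluorescence. Polyreactivity is labelled according to the gate of origin.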

Sequence | polyreactivity (PSR sort gate)
QVHLVESGGGLVQAGGSLRLSCAASGITFGYYAMGWYRQAPGKERELVAAISNSGRTYYADSVKGRFTISRDNAKNTVYLQMNSLKPEDTAVYYCADVDAYYDFYYWGQGTQVTVSS | low polyreactivity
QVQLVESGGGLVQAGGSLRLSCAASGIILPYYAMGWYRQAPGKEREFVATISSDGTSTYYADSVKGRFTISRDNAKNTVYLQMNSLKPEDTAVYDCAARIRQNPGGDNSWGQGTQVTVSS | low polyreactivity
QVQLVESGGGLVQAGGSLRLSCAASGRIFNTYAMGWYRQAPAKERELVAAITSSGGSTYYADSVKGRFTISRDNAKNTVYLQMNSLKPEDTAVYYCNAGSLHRRYYYEGDYWGQGTQVTVSS | high polyreactivity
QVQLVESGGGLVQAGGSLRLSCAASGRTFYFYVMGWYRQAPGKERELVARISYSDGSTYYADSVKGRFTISRDNAKNTVYLQMNSLKPEDTAVYYCNAYDPYYGRRYDYWGQGTQVTVSS | low polyreactivity
QVQLVESGGRLVQAGGSLRLSCAASGRTIYGNVMGWYRQAPGKERELVAVISWSSGSTSYADSVKGRFTISRDNAKNTVYLQMKSLKPEDTAVFYCAADSVTRPAGDYWGHGTQVTVSS | low polyreactivity
QVQLVESGGGLVQAGGSLRLSCAASGRTFVYYAMGWYRQAPGKERELVAAITSGGGTNYADSVKGRFTISRDNAKNSVYLQMNSLKPEDTAVYYCNADPRWYHFEYGYWGQGTQVTVSS | high polyreactivity
QVQLVESGGGLVQAGGSLRLSCASSGSTSYRYAMGWYRQAPGKERELVAAISSSGGSTYYADSVKGRFTISRDNAKNTVYLQMNSLKPEDTAVYYCAARFYSGPGGYTMYYWGQGTQVTVSS | high polyreactivity
QVQLVESGGGLLQAGGSLRLSCAASGFTIYRYAMGWYRQAPGKERELVGAITGGGGSTYYADSVKGRFTISRDNAKNTVYLQMNSLKPEDTAVYYCAVDVYHKGQYRWSYVYWGQGTQVTVSS | low polyreactivity
QVHLVESGGGLVQAGGSLRLSCAASGSTFEQYAMGWYIQAPGKERELVAAISGSGTRTYYADSVKGRFTISRDNAKNTVYLQMNSLKPEDTAVYSCRTGSGEYDYWGQGTQVTVSS | high polyreactivity
QVQLVESGGGLVQAGGSLRLSCAASALTFQAYTMGWYRQAPGKERELDAAISRNGGRTYYADSVKGRFTISRDNAKNTVYLQMNSLKPEDTAVYYCAAVHFVVSPGRGDDYWGQCTQVTVSS | high polyreactivity
QVQLVESGGGLVQAGGSLRLSCAASGSTFDTYAMGWYRQAPGKERELVAAISYRGGNTYYADSVKGRFTISRDNAKNTVYLQMNSLKPEDTAVYYCAASYFDPASIPVAFNYWGQGTQVTVSS | low polyreactivity
QVQLVESGGGLVQAGGCLRLSCASSGRTFHLYAMGWYRQAPGKERELVAAITWSSGRTYYSDSVKGRFTISRDNAKNTVYVQMKSLKPEDTAVFYCAADVWGGLLPGYDYWGQGTQVTVSS | high polyreactivity
QVQLVESGGGLVQAGGSLRLSCAASGRIFVGYAMGWYRQAPGKERELVAAINRSGSSTYYADSVKGRFTISRDYAKITVYLQMNSLKPEDTAVYYCNARSGNRYGPRYDYWGQGTQVTVSS | high polyreactivity
QVQLVESGGGLVQAGGSLRLSCAASGYIIWDYAMGWYRQAPGKEREFVATISRSVGSTYYADSVKGRFTISRDNAKNTVYLQMNSLKPEDTAVYYCAAVTWGEGFDYWGQGTQVTVSS | low polyreactivity
QVQLVESGGGLVQAGGSLRLSCAASGRTIRWNAMGWYRPAPGKERELVAAITSRGGSTYYADSVKGRFTISRDNAKNTVYLQMNSLKPEDTAVYYCAARRRSAQSGSYNHWGQGTQVTVSS | high polyreactivity
QVQLVESGGGLVQAGASLRLSCAASGFTFGTYAMGWYRQAPGKERELVAAITKSGVRTYYADSVKGRFTISRDNAKNTVYLQMNSLKPEDTAVYYCNARGHSSLSTIVDFWGQGTQVTVSS | high polyreactivity
QVQIVDSGGGLVQAGGSLRLSCAASGRIIRGYAMGWYRQAPGKERELVAAITFSGGSPYYADSVKGRFTISRDNAKNTVYLHMNSLKPEDTAVYYCAAAYGGSSYEYNYWGQGTQVTVSS | low polyreactivity
QVQLVESGGGLVQAGGSLRLSCAASGFILDYNAMGWYRQAPGKERELVATITGRGDRTYYADSVKGRVTISRDNAKNTVYLQMNSLKPEDTAGYYCAAGFDGSRHPGFDSWGQGTQVTVSS | low polyreactivity
QVQLVESGGGLVQAGGSLRLSCAASGRIFWPYAMGWYRQAPGKERELVAAITSGGSTYYADSVKGRFTISRDNAKNTVYLQMNSLKPEDTAVYYCAKRSSGVSVPVAYGGIKRYNSWGQGTQVTVSS | low polyreactivity
QVQLVESGGGLVQAGGSLRLSCAASGSIFDRYAMGWYRQAPGKERELVAAITTSGGSTSYADSVKGRYTISRDNAKNTVYLQMNSLIPEDTAVYYCAAGYDYVFAFLNEYDYWGQGTQVTVSS | low polyreactivity
QVQLVESGGGLVQAGGSLRLSCAASGLTFYANAMGWYRQAPGKERELVATISVGTDSTNYADSVKGRFTISRDNAKYTVYLQMNRLKPEDTAVYYCNALYEEYYAQDPYDYWGQGTQVTVSS | high polyreactivity
QVQLVETGGGLVQAGGSLRLSCAASGSTFYKYGMGWYRPAPGKERELVAAISGSGDSTYYADSVKGRFTISRDNAKNTVYLQMNSLKPEDTAVSYCNAGPWWFLHEYDYWGQGTQVTVSS | low polyreactivity

Sequence | polyreactivity (PSR sort gate)
QVQLVESGGGLVQAGGSLRLSCAASGLIFVDNAMGWYRQAPGKERELVAAIESGGSTNYADSVKGRFTISRDNAKNTVYLHMNSLKPEDTAVYYCAADWIYAPWYYQESVEYYYWGQGTQVTVSS | low polyreactivity
QVQLVESGGGLVQAGGSLRLSCAASGSIFSHYAMGWYRQAPGKERELVAAISSSGNTYYADSVKGRFTISRDNAKNTVYLQMNSLKPEDTAVYYCNAVVYSPYRYEYWGQGTQVTVSS | low polyreactivity
QVQLVESRGGLVQAGGSLRLSCAASGFTFGNYAMGWYRQAPGKEREMVAAISWSGGSTYNADSVKGRFTISRDNAKKTVYLQMNSLKPEDTAVYYCNAIRGSLWESDYWGQGTQVTVSS | high polyreactivity
QVQLVESGGGLVQAGGILRLSCAASGRIFYYNAMGGYRQAPGKERELVAAITSGGSTNYADSVKGRFTISRDNAKNTVYLQMNSLKPEDTAVYYCAADYYYYVAGVHYDYWGQGTQVTVSS | low polyreactivity
QVQLVESGGGLVQAGGSLRLSCAASGRTFDYKAMGWYRQAPGKERELVAAIDVNGGDTYYADSVKGRFTISRDNAKNTVYLQMNSLKPEDTAVYYCAAERDARTDDYWGQGTQVTVSS | low polyreactivity
QVQLVESGGGLVQAGGSLRLSCAASGSTFPRNAMGWYRQAPGKERELVATITSSGGGTYYADSVKGRFTISRDNAKNTVYLQMNSLKPEDTAVYYCNVEVHPYYWVDNFHRFPVLHNYWGQGTQVTVSA | low polyreactivity
QVQLVESGRGLVQAGGSLRLSCAASGFIFSYYAMGWYRPAPGKERELVAAITVTGGNTNYADSVKGRFTISRDNAKNTVYLQMNSLKPEDTAVYYCAAVVRGPGVYVYDWGQGTQVTVSS | low polyreactivity
QVHLVESVGGLVQAGGSLRLSCAASGGIFCVYAMGWYRQAPGKERELVAAISNSDTSTSYADSVKGRFTISRDNAKNTVYLQMNCLKPEVTAVYYCNADSPSLSGDYWGQGTQVTVSS | low polyreactivity
QVQLVESGGGLVQAGASLRLSCAASGSTFLQNAMGWYRQAPGKVRELVAAITRSGGSTNYADSVKGRFKISRDNAKNTVYLQKNSLKPEDTAVYYCPAGGRRYDDDYWGQGTQVTVSS | high polyreactivity
QVQLVESGGGIVQAGGSLRLSCAASGRTFKSYAMGWYRQAPGKERELVAAISRSGDRTYYADSVKGRFTISRDNAKNTVYLQMNSLKREDTAVYYCNARAVTGDRSDDYWGQGTHVTVSS | high polyreactivity
QVQLQESGGGPVLAGGSLRLSCAASGTIFVRLDMGWYRQAPGKEREFVATIGSGSSTYYADSVKGSFTISRDNVKNPVYLQMNSLKPEDTAVYYCAVSAAEQSRHYYWDQGTQVTVSS | low polyreactivity
QVQLVESSGGLVQAGGSLRLSCAASGRIFQAYAMGWYRQAPGKEREMVAAITGGGSTNYADSVKGRFTISRDNAKNTVYLQMNSLKPEDTAVYYCNAVTGTYGWGPQAREQEDYWGQGTQVTVSS | low polyreactivity
QVQLVESGGGLVQAGGSLRLSCAASGSTFKQYAMGWYRQAPGKERELVAAIDRGGSTYYADSVKGRFTNSRDNAKNTVYLQMNSLKPEDTAVYFCAARFVQYLYAYDYWGQGTKVTVSS | low polyreactivity
QVQLVESGGGLVQAGGSLRLSCAASGITLVSYARGWYRQAPGKERELVAAISWSGGRTFYADSVKGRFTISRDNAKNTVYLQMNRLKPEDTAVYYCNTAQYPYFYSHVSYPHDYWGQGTQVTVSS | high polyreactivity
QVQLVESGGGLVQAGGSLRLSCAASGSIFSYYTIGWYRKAPGKERELVAAISFSGTSTYYADSVKGRFTISRDNDKNTVYLQMNSLKPEDTAVYFCAKRALYYPTYPKYDTYNRYYWGQGTQGTVSS | high polyreactivity
QVQLVESGGGLVQAGCSLRLSCAASGITFRRYTMGWYRPAPGKERELVATISLSDGNTYYADSVKGRFTISRDNAKNTVYLQMNSLKPEDTAVYYCTADVRYGRDHWGQATQVTVSS | low polyreactivity
QVQLVESAGGLVQAGGSLRLSCAASGFTFLYYAMGWYRKAPGKEREFVAAISYTGGSTYYADSVKGRFTISRDNAKNTVYLQMNSLKPEDTAVYYCAVDGYYWFGSIFDYWGQGTQVTVSS | low polyreactivity
QVQLVESGGVLVQAGGSLRLSCAASGRTFRYYVKGWYRRAPGKERELLASITSNGDSTYYADSVKGRFTISRDNAKNTVYLQMNSLKPEDTAVYYCAVRWRDYRGSYRGFEYWGQGTQVTVSS | high polyreactivity
QDHLVESGGGLVQAGGSLRLSCAASGSTFYFYAMGWYREAPGKERELVAVISSGGRTYYADSVKGRFTISRDNAKNSVYLQMNSLKPVDTGVYYGAASWPSSLTFYYWGHGTQVTVSS | low polyreactivity
QVQLVESGGGLVQAGGSLRLSCAASGRIFPGNAMGWYRQSPGKERELVAGISFSGGRTYYADSVKGRFSISRDNAKNTVYLQMNSLKPEDTAVYYCATKYQQHWWRYDYWGQGTQVTVSS | low polyreactivity
QVQLVESGGGLVQAGGSLRLSCAASGLSFGDYTMGWYRQAPGKERELVAAITGSGASTYYADSVKGRFTISRDNAKNTVYLQMTRLKPEDTAGYYCAAERTPSYRAYDYWGQATQVTVSS | low polyreactivity
